B1: Interferon-inducible double-stranded RNA-dependent protein kinase activator A (Homo sapiens), O75569 (parent)
chain: MSQSRHRAEAPPLEREDSGTFSLGKMITAKPGKTPIQVLHEYGMKTKNIPVYECERSDVQIHVPTFTFRVTVGDITCTGEGTSKKLAKHRAAEAAINILKANASICFAVPDPLMPDPSKQPKNQLNPIGSLQELAIHHGWRLPEYTLSQEGGPAHKREYTTICRLESFMETGKGASKKQAKRNAAEKFLAKFSNISPENHISLTNVVGHSLGCTWHSLRNSPGEKINLLKRSLLSIPNTDYIQLLSEIAKEQGFNITYLDIDELSANGQYQCLAELSTSPITVCHGSGISCGNAQSDAAHNALQYLKIIAERK
partner: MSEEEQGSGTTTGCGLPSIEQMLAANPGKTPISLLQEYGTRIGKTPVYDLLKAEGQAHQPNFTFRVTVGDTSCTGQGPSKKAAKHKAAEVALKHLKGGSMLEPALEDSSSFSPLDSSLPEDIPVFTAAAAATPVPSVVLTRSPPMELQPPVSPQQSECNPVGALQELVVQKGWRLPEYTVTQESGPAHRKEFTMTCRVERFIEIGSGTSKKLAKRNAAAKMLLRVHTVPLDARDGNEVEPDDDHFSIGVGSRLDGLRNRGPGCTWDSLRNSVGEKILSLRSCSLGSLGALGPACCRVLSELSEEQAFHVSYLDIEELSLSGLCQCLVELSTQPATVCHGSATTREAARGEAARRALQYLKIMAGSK
B2: Arylsulfatase A (Homo sapiens), P15289 (parent)
chain: MGAPRSLLLALAAGLAVARPPNIVLIFADDLGYGDLGCYGHPSSTTPNLDQLAAGGLRFTDFYVPVSLCTPSRAALLTGRLPVRMGMYPGVLVPSSRGGLPLEEVTVAEVLAARGYLTGMAGKWHLGVGPEGAFLPPHQGFHRFLGIPYSHDQGPCQNLTCFPPATPCDGGCDQGLVPIPLLANLSVEAQPPWLPGLEARYMAFAHDLMADAQRQDRPFFLYYASHHTHYPQFSGQSFAERSGRGPFGDSLMELDAAVGTLMTAIGDLGLLEETLVIFTADNGPETMRMSRGGCSGLLRCGKGTTYEGGVREPALAFWPGHIAPGVTHELASSLDLLPTLAALAGAPLPNVTLDGFDLSPLLLGTGKSPRQSLFFYPSYPDEVRGVFAVRTGKYKAHFFTQGSAHSDTTADPACHASSSLTAHEPPLLYDLSKDPGENYNLLGGVAGATPEVLQALKQLQLLKAQLDAAVTFGPSQVARGEDPALQICCHPGCTPRPACCHCPDPHA
partner: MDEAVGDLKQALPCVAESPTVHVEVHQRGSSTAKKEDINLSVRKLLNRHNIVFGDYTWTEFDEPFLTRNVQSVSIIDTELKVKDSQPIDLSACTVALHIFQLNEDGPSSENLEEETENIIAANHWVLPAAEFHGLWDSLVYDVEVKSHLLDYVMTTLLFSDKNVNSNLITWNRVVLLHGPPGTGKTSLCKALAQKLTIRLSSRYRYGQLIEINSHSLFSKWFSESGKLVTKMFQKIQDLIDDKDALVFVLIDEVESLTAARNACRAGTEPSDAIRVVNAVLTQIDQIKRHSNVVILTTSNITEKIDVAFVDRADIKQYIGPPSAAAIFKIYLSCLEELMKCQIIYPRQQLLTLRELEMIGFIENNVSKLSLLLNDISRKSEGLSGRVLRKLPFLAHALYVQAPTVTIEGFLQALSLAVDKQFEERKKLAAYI
B3: Fibulin-5 (Homo sapiens), Q9UBX5 (parent)
chain: MPGIKRILTVTILALCLPSPGNAQAQCTNGFDLDRQSGQCLDIDECRTIPEACRGDMMCVNQNGGYLCIPRTNPVYRGPYSNPYSTPYSGPYPAAAPPLSAPNYPTISRPLICRFGYQMDESNQCVDVDECATDSHQCNPTQICINTEGGYTCSCTDGYWLLEGQCLDIDECRYGYCQQLCANVPGSYSCTCNPGFTLNEDGRSCQDVNECATENPCVQTCVNTYGSFICRCDPGYELEEDGVHCSDMDECSFSEFLCQHECVNQPGTYFCSCPPGYILLDDNRSCQDINECEHRNHTCNLQQTCYNLQGGFKCIDPIRCEEPYLRISDNRCMCPAENPGCRDQPFTILYRDMDVVSGRSVPADIFQMQATTRYPGAYYIFQIKSGNEGREFYMRQTGPISATLVMTRPIKGPREIQLDLEMITVNTVINFRGSSVIRLRIYVSQYPF
partner: B2 partner
B4: Vitamin D3 receptor (Homo sapiens), P11473 (parent)
chain: MEAMAASTSLPDPGDFDRNVPRICGVCGDRATGFHFNAMTCEGCKGFFRRSMKRKALFTCPFNGDCRITKDNRRHCQACRLKRCVDIGMMKEFILTDEEVQRKREMILKRKEEEALKDSLRPKLSEEQQRIIAILLDAHHKTYDPTYSDFCQFRPPVRVNDGGGSHPSRPNSRHTPSFSGDSSSSCSDHCITSSDMMDSSSFSNLDLSEEDSDDPSVTLELSQLSMLPHLADLVSYSIQKVIGFAKMIPGFRDLTSEDQIVLLKSSAIEVIMLRSNESFTMDDMSWTCGNQDYKYRVSDVTKAGHSLELIEPLIKFQVGLKKLNLHEEEHVLLMAICIVSPDRPGVQDAALIEAIQDRLSNTLQTYIRCRHPPPGSHLLYAKMIQKLADLRSLNEEHSKQYRCLSFQPECSMKLTPLVLEVFGNEIS
partner: B2 partner
B5: Multifunctional procollagen lysine hydroxylase and glycosyltransferase LH3 (Homo sapiens), O60568 (parent)
chain: MTSSGPGPRFLLLLPLLLPPAASASDRPRGRDPVNPEKLLVITVATAETEGYLRFLRSAEFFNYTVRTLGLGEEWRGGDVARTVGGGQKVRWLKKEMEKYADREDMIIMFVDSYDVILAGSPTELLKKFVQSGSRLLFSAESFCWPEWGLAEQYPEVGTGKRFLNSGGFIGFATTIHQIVRQWKYKDDDDDQLFYTRLYLDPGLREKLSLNLDHKSRIFQNLNGALDEVVLKFDRNRVRIRNVAYDTLPIVVHGNGPTKLQLNYLGNYVPNGWTPEGGCGFCNQDRRTLPGGQPPPRVFLAVFVEQPTPFLPRFLQRLLLLDYPPDRVTLFLHNNEVFHEPHIADSWPQLQDHFSAVKLVGPEEALSPGEARDMAMDLCRQDPECEFYFSLDADAVLTNLQTLRILIEENRKVIAPMLSRHGKLWSNFWGALSPDEYYARSEDYVELVQRKRVGVWNVPYISQAYVIRGDTLRMELPQRDVFSGSDTDPDMAFCKSFRDKGIFLHLSNQHEFGRLLATSRYDTEHLHPDLWQIFDNPVDWKEQYIHENYSRALEGEGIVEQPCPDVYWFPLLSEQMCDELVAEMEHYGQWSGGRHEDSRLAGGYENVPTVDIHMKQVGYEDQWLQLLRTYVGPMTESLFPGYHTKARAVMNFVVRYRPDEQPSLRPHHDSSTFTLNVALNHKGLDYEGGGCRFLRYDCVISSPRKGWALLHPGRLTHYHEGLPTTWGTRYIMVSFVDP
partner: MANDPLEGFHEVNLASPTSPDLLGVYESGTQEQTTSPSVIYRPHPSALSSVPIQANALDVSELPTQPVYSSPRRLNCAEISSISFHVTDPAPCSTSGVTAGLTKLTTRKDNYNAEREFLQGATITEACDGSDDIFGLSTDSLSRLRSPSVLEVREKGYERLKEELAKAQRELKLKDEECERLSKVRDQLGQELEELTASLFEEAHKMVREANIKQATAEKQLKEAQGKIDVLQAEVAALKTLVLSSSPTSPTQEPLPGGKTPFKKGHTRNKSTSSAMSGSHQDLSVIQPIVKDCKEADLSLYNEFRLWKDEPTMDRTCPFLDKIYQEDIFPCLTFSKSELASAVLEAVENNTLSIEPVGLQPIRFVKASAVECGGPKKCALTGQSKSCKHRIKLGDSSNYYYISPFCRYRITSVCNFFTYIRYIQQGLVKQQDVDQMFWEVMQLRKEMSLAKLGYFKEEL
B6: DNA mismatch repair protein Mlh1 (Homo sapiens), P40692 (parent)
chain: MSFVAGVIRRLDETVVNRIAAGEVIQRPANAIKEMIENCLDAKSTSIQVIVKEGGLKLIQIQDNGTGIRKEDLDIVCERFTTSKLQSFEDLASISTYGFRGEALASISHVAHVTITTKTADGKCAYRASYSDGKLKAPPKPCAGNQGTQITVEDLFYNIATRRKALKNPSEEYGKILEVVGRYSVHNAGISFSVKKQGETVADVRTLPNASTVDNIRSIFGNAVSRELIEIGCEDKTLAFKMNGYISNANYSVKKCIFLLFINHRLVESTSLRKAIETVYAAYLPKNTHPFLYLSLEISPQNVDVNVHPTKHEVHFLHEESILERVQQHIESKLLGSNSSRMYFTQTLLPGLAGPSGEMVKSTTSLTSSSTSGSSDKVYAHQMVRTDSREQKLDAFLQPLSKPLSSQPQAIVTEDKTDISSGRARQQDEEMLELPAPAEVAAKNQSLEGDTTKGTSEMSEKRGPTSSNPRKRHREDSDVEMVEDDSRKEMTAACTPRRRIINLTSVLSLQEEINEQGHEVLREMLHNHSFVGCVNPQWALAQHQTKLYLLNTTKLSEELFYQILIYDFANFGVLRLSEPAPLFDLAMLALDSPESGWTEEDGPKEGLAEYIVEFLKKKAEMLADYFSLEIDEEGNLIGLPLLIDNYVPPLEGLPIFILRLATEVNWDEEKECFESLSKECAMFYSIRKQYISEESTLSGQQSEVPGSIPNSWKWTVEHIVYKALRSHILPPKHFTEDGNILQLANLPDLYKVFERC
B7: Carbonic anhydrase-related protein (Homo sapiens), P35219 (parent)
chain: MADLSFIEDTVAFPEKEEDEEEEEEGVEWGYEEGVEWGLVFPDANGEYQSPINLNSREARYDPSLLDVRLSPNYVVCRDCEVTNDGHTIQVILKSKSVLSGGPLPQGHEFELYEVRFHWGRENQRGSEHTVNFKAFPMELHLIHWNSTLFGSIDEAVGKPHGIAIIALFVQIGKEHVGLKAVTEILQDIQYKGKSKTIPCFNPNTLLPDPLLRDYWVYEGSLTIPPCSEGVTWILFRYPLTISQLQIEEFRRLRTHVKGAELVEGCDGILGDNFRPTQPLSDRVIRAAFQ
partner: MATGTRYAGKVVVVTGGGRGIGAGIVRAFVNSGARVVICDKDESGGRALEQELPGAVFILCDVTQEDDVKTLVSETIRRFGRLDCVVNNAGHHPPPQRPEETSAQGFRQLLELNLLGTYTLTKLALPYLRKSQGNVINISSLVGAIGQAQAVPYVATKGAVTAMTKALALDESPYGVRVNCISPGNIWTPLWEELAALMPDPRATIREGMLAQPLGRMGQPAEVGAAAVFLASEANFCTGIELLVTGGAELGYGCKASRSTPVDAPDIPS
B8: Myelin proteolipid protein (Homo sapiens), P60201-2 (parent)
chain: MGLLECCARCLVGAPFASLVATGLCFFGVALFCGCGHEALTGTEKLIETYFSKNYQDYEYLINVIHAFQYVIYGTASFFFLYGALLLAEGFYTTGAVRQIFGDYKTTICGKGLSATFVGITYALTVVWLLVFACSAVPVYIYFNTWTTCQSIAFPSKTSASIGSLCADARMYGVLPWNAFPGKVCGSNLLSICKTAEFQMTFHLFIAAFVGAAATLVSLLTFMIAATYNFAVLKLMGRGTKF
partner: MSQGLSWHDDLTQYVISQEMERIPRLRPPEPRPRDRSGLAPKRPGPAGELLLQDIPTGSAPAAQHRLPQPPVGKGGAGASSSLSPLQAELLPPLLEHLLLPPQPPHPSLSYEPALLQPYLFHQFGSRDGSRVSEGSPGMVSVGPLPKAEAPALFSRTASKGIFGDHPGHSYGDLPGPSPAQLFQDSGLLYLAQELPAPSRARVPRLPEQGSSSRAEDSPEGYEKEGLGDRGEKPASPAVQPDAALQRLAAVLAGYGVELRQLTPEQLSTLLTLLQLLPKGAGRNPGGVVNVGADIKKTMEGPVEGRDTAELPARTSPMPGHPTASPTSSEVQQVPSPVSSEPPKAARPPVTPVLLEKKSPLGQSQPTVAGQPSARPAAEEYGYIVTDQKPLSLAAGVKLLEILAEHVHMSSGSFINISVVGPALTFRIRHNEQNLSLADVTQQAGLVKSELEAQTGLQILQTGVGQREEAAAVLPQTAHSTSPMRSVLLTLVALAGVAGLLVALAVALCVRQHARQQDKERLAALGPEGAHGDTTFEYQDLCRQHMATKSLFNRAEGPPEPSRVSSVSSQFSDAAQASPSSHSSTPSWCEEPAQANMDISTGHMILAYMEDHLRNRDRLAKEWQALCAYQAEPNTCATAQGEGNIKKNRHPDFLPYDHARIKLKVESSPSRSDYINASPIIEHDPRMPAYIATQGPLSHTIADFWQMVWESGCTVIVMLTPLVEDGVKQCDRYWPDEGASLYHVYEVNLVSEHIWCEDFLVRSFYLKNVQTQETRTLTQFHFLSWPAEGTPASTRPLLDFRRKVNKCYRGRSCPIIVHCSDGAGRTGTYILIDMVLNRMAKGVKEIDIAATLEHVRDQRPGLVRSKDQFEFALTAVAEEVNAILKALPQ

Variants of: B1
Conditions: with trbp2_human TARBP2, Q15633

Row | Variant | effect of a mutation on the interaction
1 | P222L | with no effect

Variants of: B2
Conditions: with pch2_human TRIP13, Q15645

Row | Variant | effect of a mutation on the interaction
2 | Y201C | with no effect
3 | N350S | with no effect

Variants of: B3
Conditions: with pch2_human TRIP13, Q15645

Row | Variant | effect of a mutation on the interaction
4 | V60L | disrupting interaction strength

Variants of: B4
Conditions: with pch2_human TRIP13, Q15645

Row | Variant | effect of a mutation on the interaction
5 | G33D | with no effect
6 | C190W | with no effect
7 | I268T | with no effect
8 | E329K | disrupting interaction strength

Variants of: B5
Conditions: with RAB3IP

Row | Variant | effect of a mutation on the interaction
9 | N223S | with no effect

Variants of: B6
Conditions: with AP2B1, P63010-2

Row | Variant | effect of a mutation on the interaction
10 | S44F | disrupting interaction strength
11 | G244D | with no effect
12 | R472I | with no effect

Variants of: B6
Conditions: with ccd33_human CCDC33, Q8N5R6

Row | Variant | effect of a mutation on the interaction
13 | S44F | disrupting interaction strength
14 | G244D | disrupting interaction strength
15 | R472I | with no effect

Variants of: B6
Conditions: with taso2_human TASOR2, Q5VWN6

Row | Variant | effect of a mutation on the interaction
16 | S44F | disrupting interaction strength
17 | G244D | disrupting interaction strength
18 | R472I | with no effect

Variants of: B7
Conditions: with dhb14_human HSD17B14, Q9BPX1

Row | Variant | effect of a mutation on the interaction
19 | S100P | disrupting interaction strength

Variants of: B8
Conditions: with PTPRN

Row | Variant | effect of a mutation on the interaction
20 | P15L | disrupting interaction strength
21 | L87P | disrupting interaction strength

— IntAct's records for PubMed 25910212
